# Assay results: patent US20130011378A1, “Stable formulations of a hyaluronan-degrading enzyme” (priority 2011, published 2013)
# Columns and labels:
# [1] = RP-HPLC: insulin percent purity; format: physicochemical; conditions: for Percent of insulin main peak: 2-8° C.
# Protocol: For insulin, 20 μL was injected for each HPLC run.
# The data were processed using Design-Expert® 7.0 (StatEase) and the “historical data” feature. Insulin percent purity was expressed as the percent of main insulin versus all insulin species.
# [2] = Appearance (visual analysis, illuminator method); format: physicochemical
# Protocol: Appearance of the insulin/rHuPH20 formulations was determined by qualitative visual analysis of the insulin/rHuPH20 solution in a type I glass vial. The evaluation of the coloration and clarity of the solution was determined by comparison to that of USP (or equivalent) sterile water for irrigation (SWFI). The aqueous solution was determined to be clear if its clarity was the same as that of the SWFI. The aqueous solution was determined to be colorless if it had the appearance of the SWFI. Vials were tested at room temperature and care was taken not to cause unnecessary turbulence and/or air bubbles in the solutions while swirling and/or inverting. If necessary, vials were wiped with non-shedding or lint-free wipes and 70% ethanol prior to testing. The procedure was as follows: A directional light source with a 150 W or greater lamp was turned on. The samples were prepared in a hood. Samples to be tested were gently inverted to ensure homogeneity prior to transferring >0.5 mL using aseptic technique to a Type 1 glass vial for testing. A SWFI sample was prepared in the same way. […] Color, clarity and the presence and extent of any visible particles and/or foreign matter were recorded. […]
# In this method, the degree of clarity and coloration of liquids were evaluated to ensure (visually) product quality against the applicable appearance specifications. […]
# [3] = cited from earlier work
substance,measurement,setting,value
"regular insulin: mature human insulin, SEQ ID NOS: 103 and 104",Percent of insulin main peak,"[1]; 50 mM NaCl, pH 7.0, 0 months",97.64%
same,Percent of insulin main peak,"[1]; 50 mM NaCl, pH 7.0, 0.25 months",97.59%
same,Percent of insulin main peak,"[1]; 50 mM NaCl, pH 7.0, 0.5 months",97.50%
same,Percent of insulin main peak,"[1]; 50 mM NaCl, pH 7.0, 1 month",97.44%
same,Percent of insulin main peak,"[1]; 50 mM NaCl, pH 7.0, 3 months",97.24%
same,Percent of insulin main peak,"[1]; 50 mM NaCl, pH 7.0, 5 months",97.73%
same,Percent of insulin main peak,"[1]; 50 mM NaCl, pH 7.0, 9 months",97.20%
same,Percent of insulin main peak,"[1]; 50 mM NaCl, pH 7.2, 0 months",97.64%
same,Percent of insulin main peak,"[1]; 50 mM NaCl, pH 7.2, 0.25 months",97.59%
same,Percent of insulin main peak,"[1]; 50 mM NaCl, pH 7.2, 0.5 months",97.56%
same,Percent of insulin main peak,"[1]; 50 mM NaCl, pH 7.2, 1 month",97.46%
same,Percent of insulin main peak,"[1]; 50 mM NaCl, pH 7.2, 3 months",97.47%
same,Percent of insulin main peak,"[1]; 50 mM NaCl, pH 7.2, 5 months",97.75%
same,Percent of insulin main peak,"[1]; 50 mM NaCl, pH 7.2, 9 months",97.27%
same,Percent of insulin main peak,"[1]; 50 mM NaCl, pH 7.4, 0 months",97.58%
same,Percent of insulin main peak,"[1]; 50 mM NaCl, pH 7.4, 0.25 months",97.54%
same,Percent of insulin main peak,"[1]; 50 mM NaCl, pH 7.4, 0.5 months",97.48%
same,Percent of insulin main peak,"[1]; 50 mM NaCl, pH 7.4, 1 month",97.47%
same,Percent of insulin main peak,"[1]; 50 mM NaCl, pH 7.4, 3 months",97.45%
same,Percent of insulin main peak,"[1]; 50 mM NaCl, pH 7.4, 5 months",97.74%
same,Percent of insulin main peak,"[1]; 50 mM NaCl, pH 7.4, 9 months",97.27%
same,Percent of insulin main peak,"[1]; 50 mM NaCl, pH 7.6, 0 months",97.65%
same,Percent of insulin main peak,"[1]; 50 mM NaCl, pH 7.6, 0.25 months",97.58%
same,Percent of insulin main peak,"[1]; 50 mM NaCl, pH 7.6, 0.5 months",97.33%
same,Percent of insulin main peak,"[1]; 50 mM NaCl, pH 7.6, 1 month",97.44%
same,Percent of insulin main peak,"[1]; 50 mM NaCl, pH 7.6, 3 months",97.35%
same,Percent of insulin main peak,"[1]; 50 mM NaCl, pH 7.6, 5 months",97.66%
same,Percent of insulin main peak,"[1]; 50 mM NaCl, pH 7.6, 9 months",97.34%
same,Percent of insulin main peak,"[1]; 80 mM NaCl, pH 7.0, 0 months",97.65%
same,Percent of insulin main peak,"[1]; 80 mM NaCl, pH 7.0, 0.25 months",97.50%
same,Percent of insulin main peak,"[1]; 80 mM NaCl, pH 7.0, 0.5 months",97.30%
same,Percent of insulin main peak,"[1]; 80 mM NaCl, pH 7.0, 1 month",97.20%
same,Percent of insulin main peak,"[1]; 80 mM NaCl, pH 7.0, 5 months",97.81%
same,Percent of insulin main peak,"[1]; 80 mM NaCl, pH 7.0, 9 months",96.18%
same,Percent of insulin main peak,"[1]; 80 mM NaCl, pH 7.2, 0 months",97.57%
same,Percent of insulin main peak,"[1]; 80 mM NaCl, pH 7.2, 0.25 months",97.59%
same,Percent of insulin main peak,"[1]; 80 mM NaCl, pH 7.2, 0.5 months",97.30%
same,Percent of insulin main peak,"[1]; 80 mM NaCl, pH 7.2, 1 month",97.45%
same,Percent of insulin main peak,"[1]; 80 mM NaCl, pH 7.2, 3 months",97.34%
same,Percent of insulin main peak,"[1]; 80 mM NaCl, pH 7.2, 5 months",97.64%
same,Percent of insulin main peak,"[1]; 80 mM NaCl, pH 7.4, 0 months",97.56%
same,Percent of insulin main peak,"[1]; 80 mM NaCl, pH 7.4, 0.25 months",97.61%
same,Percent of insulin main peak,"[1]; 80 mM NaCl, pH 7.4, 0.5 months",97.51%
same,Percent of insulin main peak,"[1]; 80 mM NaCl, pH 7.4, 1 month",97.43%
same,Percent of insulin main peak,"[1]; 80 mM NaCl, pH 7.4, 3 months",97.43%
same,Percent of insulin main peak,"[1]; 80 mM NaCl, pH 7.4, 5 months",97.75%
same,Percent of insulin main peak,"[1]; 80 mM NaCl, pH 7.4, 9 months",97.29%
same,Percent of insulin main peak,"[1]; 80 mM NaCl, pH 7.6, 0 months",97.63%
same,Percent of insulin main peak,"[1]; 80 mM NaCl, pH 7.6, 0.25 months",97.62%
same,Percent of insulin main peak,"[1]; 80 mM NaCl, pH 7.6, 0.5 months",97.52%
same,Percent of insulin main peak,"[1]; 80 mM NaCl, pH 7.6, 1 month",97.37%
same,Percent of insulin main peak,"[1]; 80 mM NaCl, pH 7.6, 3 months",97.64%
same,Percent of insulin main peak,"[1]; 80 mM NaCl, pH 7.6, 5 months",97.67%
same,Percent of insulin main peak,"[1]; 80 mM NaCl, pH 7.6, 9 months",97.31%
same,Percent of insulin main peak,"[1]; 110 mM NaCl, pH 7.0, 0 months",97.64%
same,Percent of insulin main peak,"[1]; 110 mM NaCl, pH 7.0, 0.25 months",97.31%
same,Percent of insulin main peak,"[1]; 110 mM NaCl, pH 7.0, 0.5 months",97.57%
same,Percent of insulin main peak,"[1]; 110 mM NaCl, pH 7.0, 1 month",96.64%
same,Percent of insulin main peak,"[1]; 110 mM NaCl, pH 7.0, 3 months",96.10%
same,Percent of insulin main peak,"[1]; 110 mM NaCl, pH 7.0, 5 months",97.79%
same,Percent of insulin main peak,"[1]; 110 mM NaCl, pH 7.2, 0 months",97.62%
same,Percent of insulin main peak,"[1]; 110 mM NaCl, pH 7.2, 0.25 months",97.46%
same,Percent of insulin main peak,"[1]; 110 mM NaCl, pH 7.2, 0.5 months",97.35%
same,Percent of insulin main peak,"[1]; 110 mM NaCl, pH 7.2, 3 months",97.49%
same,Percent of insulin main peak,"[1]; 110 mM NaCl, pH 7.2, 5 months",97.61%
same,Percent of insulin main peak,"[1]; 110 mM NaCl, pH 7.2, 9 months",95.91%
same,Percent of insulin main peak,"[1]; 110 mM NaCl, pH 7.4, 0 months",97.65%
same,Percent of insulin main peak,"[1]; 110 mM NaCl, pH 7.4, 0.25 months",97.58%
same,Percent of insulin main peak,"[1]; 110 mM NaCl, pH 7.4, 0.5 months",97.39%
same,Percent of insulin main peak,"[1]; 110 mM NaCl, pH 7.4, 1 month",97.36%
same,Percent of insulin main peak,"[1]; 110 mM NaCl, pH 7.4, 3 months",97.36%
same,Percent of insulin main peak,"[1]; 110 mM NaCl, pH 7.4, 5 months",97.79%
same,Percent of insulin main peak,"[1]; 110 mM NaCl, pH 7.4, 9 months",96.91%
same,Percent of insulin main peak,"[1]; 110 mM NaCl, pH 7.6, 0 months",97.58%
same,Percent of insulin main peak,"[1]; 110 mM NaCl, pH 7.6, 0.25 months",97.57%
same,Percent of insulin main peak,"[1]; 110 mM NaCl, pH 7.6, 0.5 months",97.60%
same,Percent of insulin main peak,"[1]; 110 mM NaCl, pH 7.6, 1 month",97.52%
same,Percent of insulin main peak,"[1]; 110 mM NaCl, pH 7.6, 3 months",97.42%
same,Percent of insulin main peak,"[1]; 110 mM NaCl, pH 7.6, 5 months",97.61%
same,Percent of insulin main peak,"[1]; 110 mM NaCl, pH 7.6, 9 months",97.31%
same,Percent of insulin main peak,"[1]; 140 mM NaCl, pH 7.0, 0 months",97.65%
same,Percent of insulin main peak,"[1]; 140 mM NaCl, pH 7.0, 0.25 months",97.15%
same,Percent of insulin main peak,"[1]; 140 mM NaCl, pH 7.0, 1 month",96.39%
same,Percent of insulin main peak,"[1]; 140 mM NaCl, pH 7.0, 3 months",96.16%
same,Percent of insulin main peak,"[1]; 140 mM NaCl, pH 7.0, 9 months",95.17%
same,Percent of insulin main peak,"[1]; 140 mM NaCl, pH 7.2, 0 months",97.56%
same,Percent of insulin main peak,"[1]; 140 mM NaCl, pH 7.2, 0.25 months",97.37%
same,Percent of insulin main peak,"[1]; 140 mM NaCl, pH 7.2, 1 month",96.62%
same,Percent of insulin main peak,"[1]; 140 mM NaCl, pH 7.2, 3 months",96.60%
same,Percent of insulin main peak,"[1]; 140 mM NaCl, pH 7.2, 9 months",95.49%
same,Percent of insulin main peak,"[1]; 140 mM NaCl, pH 7.4, 0 months",97.64%
same,Percent of insulin main peak,"[1]; 140 mM NaCl, pH 7.4, 0.25 months",97.57%
same,Percent of insulin main peak,"[1]; 140 mM NaCl, pH 7.4, 0.5 months",97.33%
same,Percent of insulin main peak,"[1]; 140 mM NaCl, pH 7.4, 1 month",97.23%
same,Percent of insulin main peak,"[1]; 140 mM NaCl, pH 7.4, 3 months",97.38%
same,Percent of insulin main peak,"[1]; 140 mM NaCl, pH 7.4, 5 months",97.73%
same,Percent of insulin main peak,"[1]; 140 mM NaCl, pH 7.4, 9 months",96.10%
same,Percent of insulin main peak,"[1]; 140 mM NaCl, pH 7.6, 0 months",97.64%
same,Percent of insulin main peak,"[1]; 140 mM NaCl, pH 7.6, 0.25 months",97.61%
same,Percent of insulin main peak,"[1]; 140 mM NaCl, pH 7.6, 0.5 months",97.41%
same,Percent of insulin main peak,"[1]; 140 mM NaCl, pH 7.6, 1 month",97.51%
same,Percent of insulin main peak,"[1]; 140 mM NaCl, pH 7.6, 3 months",97.35%
same,Percent of insulin main peak,"[1]; 140 mM NaCl, pH 7.6, 5 months",97.56%
same,Percent of insulin main peak,"[1]; 140 mM NaCl, pH 7.6, 9 months",97.07%
same,insulin main peak percentage,"[1]; long term storage at 2-8° C., […] m-cresol, 0.2% phenol",about 97%
same,time tested without precipitates,"[2]; NaCl 80 mM or less, pH 7.6",greater than 15 months
same,time to form precipitates,"[2]; NaCl greater than 80 mM, pH 7.0",≤ 1 week
same,plasma half-life,[3]; following subcutaneous administration,about 1.5 hours
same,Onset,[3]; in vivo,30 min
same,Peak,[3]; in vivo,1 to 3 h
